Data: US20230399409A1

What was measured:
human IL-36R (human) = human IL-36R (human) (UniProt Q9HB29); test: flow cytometry on CHO-K1 cells expressing human IL-36R; fit value in the second table under the plot for a flat curve (row ECF corresponds to EC90 of Table 8; no unit in the table, axis in µg/mL)
monkey IL-36R (monkey) = test: flow cytometry on CHO-K1 cells expressing monkey IL-36R; fit value in the second table under the plot for a flat curve (row ECF corresponds to EC90 of Table 8; no unit in the table, axis in µg/mL)

human IL-36R (human), sequence (Q9HB29 20-575): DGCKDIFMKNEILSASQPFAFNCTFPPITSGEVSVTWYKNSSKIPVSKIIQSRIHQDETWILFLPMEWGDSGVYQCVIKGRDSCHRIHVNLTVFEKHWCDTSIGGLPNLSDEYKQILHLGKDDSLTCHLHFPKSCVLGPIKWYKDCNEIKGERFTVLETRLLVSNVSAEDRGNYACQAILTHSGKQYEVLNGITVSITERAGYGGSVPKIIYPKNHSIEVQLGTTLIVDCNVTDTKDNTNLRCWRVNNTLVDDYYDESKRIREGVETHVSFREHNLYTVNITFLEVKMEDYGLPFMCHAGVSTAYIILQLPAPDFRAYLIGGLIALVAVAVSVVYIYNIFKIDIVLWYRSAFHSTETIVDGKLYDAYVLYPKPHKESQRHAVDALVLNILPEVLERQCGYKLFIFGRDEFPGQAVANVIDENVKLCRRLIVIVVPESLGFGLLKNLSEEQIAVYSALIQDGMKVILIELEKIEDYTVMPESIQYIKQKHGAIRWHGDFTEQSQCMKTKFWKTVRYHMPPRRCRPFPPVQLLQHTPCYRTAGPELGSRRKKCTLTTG

- ECF (human IL-36R (human)): 0.000494 µg/mL
- ECF (monkey IL-36R (monkey)): 0.000457 µg/mL
Substance: TNP IgG1 (Fc silence) negative control antibody 900543
